# Reference: patent publication CN114106174A (SUZHOU SCENE MEDICAL SCIENCE AND TECH LIMITED COMPANY, dated 2022)
# Positions count from the first letter of the chain named.
# T1: OX40 on OX40-overexpressing cells (OX40过表达细胞表面OX40) (UniProt P43489 29-277, limits assumed)
# T1 construct: whole, on cells; The cell line and the construct of the overexpressing cells are not described; also called CD134; TNFRSF4
# T1 sequence (looked up): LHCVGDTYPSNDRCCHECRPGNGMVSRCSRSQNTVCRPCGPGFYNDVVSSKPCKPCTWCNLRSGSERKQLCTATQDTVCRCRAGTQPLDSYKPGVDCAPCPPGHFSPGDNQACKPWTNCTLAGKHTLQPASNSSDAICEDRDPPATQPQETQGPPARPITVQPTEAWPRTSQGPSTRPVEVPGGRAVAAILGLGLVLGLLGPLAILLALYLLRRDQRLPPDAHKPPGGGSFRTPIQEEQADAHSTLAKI
# B1: 21F3-11 (antibody, V domains shown)
# VH: QVQLQESGPGLVKPSGTLSLTCAVSGGSISSSNWWSWVRQPPGKGLEWIGEIYHGGSTNYNPSLKSRITISVDKSKNQFSLKLSSVTAADTAMYYCATLPGYSSGWFDSWGQGTLVTVSS
# VL: EIVLMQSPGTLSLSPGERATLSCRASQSVSSSYLAWYQQKPGQAPSLLIYGASNRASGIPDRFSGSGSGTDFTLTITRLEPEDFAVYYCQQYGSSPLTFGGGTRVEIKR
# B2: 18F5-2 (antibody, V domains shown)
# VH: QVQMQESGPGLVKPSGTLSLICAVSGGSISSSKWWSWVRQPPGKGLEWIGEIYHSGSTNYNPSLKSRVTISIDKSKNQFSLRLTSVTAADTAVYYCARGDVLLWFGGQGTLVTVSS
# VL: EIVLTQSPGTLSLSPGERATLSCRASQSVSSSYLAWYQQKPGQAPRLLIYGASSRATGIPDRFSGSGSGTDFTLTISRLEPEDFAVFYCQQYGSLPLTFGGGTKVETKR
# B3: 26C3-4 (antibody, V domains shown)
# VH: B2 VH with M4L, I21T, A23D, K33N, I72V, F79V, R82K, T84N, V101I
# VL: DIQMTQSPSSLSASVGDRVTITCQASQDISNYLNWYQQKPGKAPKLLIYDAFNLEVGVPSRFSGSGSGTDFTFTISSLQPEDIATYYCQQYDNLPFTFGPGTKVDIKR
# B4: 17D5-11 (antibody, V domains shown)
# VH: QVQLQESGPGLVKPSETLSLTCAVSGGSINSTNWWSWVRQPPGKGLEWIGEIYHSGSTNYNPSLKSRVTISVDKSKNQFSLKLSSVTAADTAVYYCARGGAVALDYWGQGTLVTVSS
# VL: EIVLTQSPGPLSLSPGDRATLSCRASQTVSSSYLAWYLQKPGQAPRLLIYGASIRATGIPDRFSGSGSGTDFTLTISRLEPEDFAVYYCQQYGNSPITFGQGTRLEIKR
# B5: 21F9-12 (antibody, V domains shown)
# VH: QVQLQESGPGLVKPSGTLSLTCAVSGGSISSYNWWSWVRQPPGKGLEWIGEIYHSGNTNYNPSLKSRVTISVDKSKNQFSLKLSSVTAADTAMYYCARDQDYYGSGNFYYWGQGTLVTVSS
# VL: not shown
# B6: 23C4-1-5 (antibody, V domains shown)
# VH: B2 VH with M4L, I21T, K33N, N59T, I72V, N77S, F79I, R82K, Q108R
# VL: B4 VL with P10T, D17E, T20S, T28S, S32N, L38Q, A44T, T75I, G93S, N94S
# B7: 29B8-3 (antibody, V domains shown)
# VH: QVQLQESGPGLVKPSGTLSLTCAVSGVSISSSNWWSWVRQPPGKGLEWIGEIYHSGNTNYNPSLKSRVTISVDKSKNQFSLKLSSVTAADTAVYYCAETSTITTNYWGQGTLVTVSS
# VL: DIQMTQSPSSLSASVGDRVTITCRASQTISSYLNWYQQKPGKAPKLLIYAASSLQSGVPSRFSGSESGTDFTLTISSLQPEDFATYYCQQTYSIPITFGQGTRLEIKR
# B8: 16E4-10-5 (antibody, V domains shown)
# VH: B2 VH with M4L, I21T, A23D, K33N, I72V, F79V, R82K, T84N, V101I
# VL: B4 VL with P10T, D17E, T28S, S32R, L38Q, I54N, I59M, N94S
# B9: 14D3-7-3 (antibody, V domains shown)
# VH: EVQLVESGGGLVKPGGSLRLSCAASGFTFSNAWMSWVRQAPGKGLEWVGRIKRKTDGGTTDYATPVKGRFTISRDASKNTLYLQMNSLKTEDTAVYYCTSAARRGYFDIWGRGTLVTVSS
# VL: B4 VL with P10T, D17E, T28S, S32R, L38Q, I54N, I59M, V86M, N94S
# B10: 1F10-12-3 (antibody, V domains shown)
# VH: QVQLQESGPGLVKPSGTLSLTCAVSGGSISNSNWWNWVRQPPGRGLEWIGEIYHSGSTNYNPSLKSRVTISVDKSKNQFSLKLTSVTAADTAVYYCARYSTPFFDYWGQGNLVTVSS
# VL: DIQMTQSPSSLSASVGDRVTITCRASQSISNYLNWYQQKQGKAPKLLIYGASSLQSGVPSRFSGSGSGTDFTLTINSLQPEDFATYCCQQSYNNPLTFGGGTKVEIKR
# B11: 20G6-7-1 (antibody, V domains shown)
# VH: QVQLQESGPGLVKPSGTLSLTCAVSGGSISSSNWWSWVRQPPGKGLEWIGEIYHSGNTNYNPSLKSRVTISVDKSKNQFSLKLSSVTAADTAVYYCARGGTTFDYWGQGTLVTVSS
# VL: EIVLMQYPGTLSLSSGERATLSCRASQSVSSRYLAWYQQKPGQAPRLLIYGASNRASGMPDRFSGSGSGTEFTLTISSLEPEDFAMYYCQQYGSSPITFGQGTRVEIKR
# B12: 20D2-12 (antibody, V domains shown)
# VH: QVQLVESGGGLVKPGGSLRLSCAASGFTFSDYYMSWIRQAPGRGLEWISYISGSDSTIYYEDSVMGRFTISRDNAKNSLYLQMNSLRAEDTAVYYCARDRDVYGYSGYGYFDYWGQGTLVTVSS
# VL: B11 VL with M5T, Y7S, S15P, S57T, E71D, S78R, M86V, V105L
# B13: 24F8-7 (antibody, V domains shown)
# VH: B5 VH with N57S, M93V, Q100E, F108Y, Y110H
# VL: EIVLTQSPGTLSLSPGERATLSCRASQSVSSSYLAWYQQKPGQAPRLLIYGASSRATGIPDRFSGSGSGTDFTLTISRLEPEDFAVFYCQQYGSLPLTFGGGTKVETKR
# B14: 21D2-3 (antibody, V domains shown)
# VH: QVQLVESGGGLVKPGGSLRLSCAASGFTFSDYYMSWIRQAPGKGLEWVSYISSSGTTIYCADSVKGRFTISRDNAKNSLYLQMNSLRAEDTAVYYCARDSSTWYEGNYFDYWGQGTLVTVSS
# VL: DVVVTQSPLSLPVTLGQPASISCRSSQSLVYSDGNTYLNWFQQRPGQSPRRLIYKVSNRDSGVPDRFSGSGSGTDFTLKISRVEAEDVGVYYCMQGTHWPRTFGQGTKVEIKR
# B15: 24F10-1 (antibody, V domains shown)
# VH: QVQLQESGPGLVKPSGNLSLTCVVSGASIINNNWWTWVRQSPGKGLEWIGEIFHSGTTNYNPSLKNRVTISVDKAKNQFSLNLKSVTAADTAVYYCVAYVSGTYYNFDYWGQGTLVTVSS
# VL: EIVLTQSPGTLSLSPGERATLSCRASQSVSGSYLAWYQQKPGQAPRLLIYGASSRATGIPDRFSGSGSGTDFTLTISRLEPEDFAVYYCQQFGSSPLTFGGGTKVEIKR
# B16: 55H6-6 (antibody, V domains shown)
# VH: QVQLVQSGAEVKKPGASVKVSCKASGYTFTSYGISWVRQAPGQGLEWMGWISAYNGHTNYAQKLQGRVTMTTDTSTNTAYMELWSLRSDDTAVYYCTSDYGDYWGQGTLVTVSS
# VL: DVVVTQSPLSLPVTLGQPASISCRSSQSLVYSDGNTNLYWFQQRPGQSPRRLIYQVSNRDSGVPDRFSGSGSGTDFTLKISRVEAEDVGVYYCMQGTHWPPALTFGGGTEVEIKR
# B17: 24E10-4 (antibody, V domains shown)
# VH: B2 VH with I21T
# VL: B4 VL with P10T, D17E, R24W, T28S, S32T, L38Q, R78S, N94S
# B18: 30B1-3 (antibody, V domains shown)
# VH: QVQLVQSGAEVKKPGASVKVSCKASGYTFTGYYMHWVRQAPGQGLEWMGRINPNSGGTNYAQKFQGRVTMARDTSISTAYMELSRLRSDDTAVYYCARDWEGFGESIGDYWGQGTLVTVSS
# VL: B1 VL with M5T, L21F, S31G, S46R, Y50H, N54S, S57T, T77S, Q90L, R104K
# B19: 15A7-6 (antibody, V domains shown)
# VH: QVQLQESGPGLVKPSGTLSLTCAVSGGSINSSSWWSWVRQPPGKGLEWIGEIYHSGDTNYNPSLKSRVAISVDKSKNQFSLKLSSVTAADTAVYYCARDQADYFGSGNYVYWGQGTLVTVSS
# VL: B11 VL with A19R, T20V, A25P, R32S, N54S, M59I, E71D, S78R, M86V, S95L
# Biological target: T1, OX40 on OX40-overexpressing cells …
# Assay: flow cytometry, hybridoma supernatant on OX40-overexpressing cells, goat anti-mouse IgG-PE
row,Binder,Y586通道PE荧光值
1,B1,171000
2,B2,432000
3,B3,416000
4,B4,475000
5,B5,424000
6,B6,63900
7,B7,388000
8,B8,377000
9,B9,274000
10,B10,170000
11,B11,352000
12,B12,540000
13,B13,437000
14,B14,202000
15,B15,274000
16,B16,479000
17,B17,344000
18,B18,208000
19,B19,181000
